Results published in patent publication US20150197564A1 (Regeneron, published 2015).

Tests used:
hANGPTL3(17-460)-His [1] = molecular target: T1, hANGPTL3(17-460)-His (human, UniProt Q9Y5C1 17-460); assay: cell-based or functional assay
T1 sequence: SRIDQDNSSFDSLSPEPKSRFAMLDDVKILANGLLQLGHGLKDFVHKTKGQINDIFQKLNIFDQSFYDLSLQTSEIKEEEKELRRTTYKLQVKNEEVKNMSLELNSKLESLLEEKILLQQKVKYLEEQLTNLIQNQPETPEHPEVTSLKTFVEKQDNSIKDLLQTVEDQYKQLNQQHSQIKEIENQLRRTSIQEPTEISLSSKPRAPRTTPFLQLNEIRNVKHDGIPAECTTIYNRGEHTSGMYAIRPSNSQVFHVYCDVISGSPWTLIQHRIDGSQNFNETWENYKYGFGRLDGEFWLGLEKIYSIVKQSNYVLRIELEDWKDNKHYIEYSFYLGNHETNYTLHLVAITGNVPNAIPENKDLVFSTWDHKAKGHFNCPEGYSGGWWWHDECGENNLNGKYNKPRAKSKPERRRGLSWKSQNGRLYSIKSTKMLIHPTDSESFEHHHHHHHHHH

mANGPTL3(17-240)-His = molecular target: T2, mANGPTL3(17-240)-His (Mus musculus, UniProt Q9R182 17-240); assay: cell-based or functional assay
T2 sequence: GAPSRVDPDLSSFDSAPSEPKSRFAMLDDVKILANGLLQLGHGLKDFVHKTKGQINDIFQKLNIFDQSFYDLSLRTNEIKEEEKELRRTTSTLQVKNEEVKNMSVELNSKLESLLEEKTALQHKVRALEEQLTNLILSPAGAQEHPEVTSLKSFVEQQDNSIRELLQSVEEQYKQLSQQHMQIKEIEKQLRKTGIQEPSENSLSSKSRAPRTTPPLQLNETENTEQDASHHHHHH

mANGPTL3(17-455)-His [2] = molecular target: T3, mANGPTL3(17-455)-His (Mus musculus, UniProt Q9R182 17-455); assay: cell-based or functional assay
T3 sequence: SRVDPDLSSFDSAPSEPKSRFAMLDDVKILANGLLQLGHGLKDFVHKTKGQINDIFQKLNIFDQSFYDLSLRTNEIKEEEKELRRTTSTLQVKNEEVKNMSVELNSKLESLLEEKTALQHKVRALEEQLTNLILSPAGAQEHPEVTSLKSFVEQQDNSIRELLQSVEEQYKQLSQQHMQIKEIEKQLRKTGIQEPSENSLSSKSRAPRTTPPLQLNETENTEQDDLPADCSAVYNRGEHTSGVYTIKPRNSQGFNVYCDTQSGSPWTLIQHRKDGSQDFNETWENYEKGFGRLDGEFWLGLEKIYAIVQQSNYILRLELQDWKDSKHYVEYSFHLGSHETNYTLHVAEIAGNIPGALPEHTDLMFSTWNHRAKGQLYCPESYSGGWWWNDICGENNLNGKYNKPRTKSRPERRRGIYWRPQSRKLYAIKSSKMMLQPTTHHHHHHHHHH

hANGPTL3(17-169)-mFc = molecular target: T4, hANGPTL3(17-169)-mFc (human); assay: cell-based or functional assay
T4 chain: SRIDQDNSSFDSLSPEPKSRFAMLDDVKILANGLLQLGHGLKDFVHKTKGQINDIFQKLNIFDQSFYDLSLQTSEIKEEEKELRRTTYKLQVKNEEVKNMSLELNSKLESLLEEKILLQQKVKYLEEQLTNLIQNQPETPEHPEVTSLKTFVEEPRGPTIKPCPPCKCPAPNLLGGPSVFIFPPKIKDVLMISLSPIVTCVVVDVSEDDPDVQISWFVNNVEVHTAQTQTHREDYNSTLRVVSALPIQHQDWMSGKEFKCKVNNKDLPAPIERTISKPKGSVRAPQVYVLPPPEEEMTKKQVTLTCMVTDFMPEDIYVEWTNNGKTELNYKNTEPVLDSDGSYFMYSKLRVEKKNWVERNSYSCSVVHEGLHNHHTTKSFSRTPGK

hANGPTL3(17-170)-His = molecular target: T5, hANGPTL3(17-170)-His (human, UniProt Q9Y5C1 17-170); assay: cell-based or functional assay
T5 sequence: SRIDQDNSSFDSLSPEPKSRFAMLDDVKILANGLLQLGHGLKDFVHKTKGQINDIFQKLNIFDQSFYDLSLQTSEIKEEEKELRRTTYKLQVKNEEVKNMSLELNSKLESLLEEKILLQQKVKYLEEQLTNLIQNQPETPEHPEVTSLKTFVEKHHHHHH

MfANGPTL3(17-170)-mmH [3] = molecular target: T6, MfANGPTL3(17-170)-mmH (Macaca fascicularis); assay: cell-based or functional assay
T6 chain: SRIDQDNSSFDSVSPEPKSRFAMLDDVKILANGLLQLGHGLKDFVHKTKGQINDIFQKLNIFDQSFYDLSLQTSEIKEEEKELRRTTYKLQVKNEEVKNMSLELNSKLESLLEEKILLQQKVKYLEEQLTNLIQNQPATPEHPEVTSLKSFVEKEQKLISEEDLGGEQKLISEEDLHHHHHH

hANGPTL3(17-460)-His [4] = molecular target: T1, hANGPTL3(17-460)-His; assay: SPR Biacore, antigen captured, 37C, pH 7.4, HBS-EP
Experimental: (§1) All kinetic binding experiments were performed at 25° C. or 37° C. on a BIACORE™ T200 label-free molecular interaction instrument (GE Healthcare) using a CM5 sensor chip. Briefly, an antigen capture surface was generated by covalently coupling either an anti-mouse IgG-specific antibody (anti-mFc; GE Healthcare; catalog #BR-1008-38) or an anti-pentahistidine-specific antibody (Qiagen; catalog #34660) to the surface of a CM5 sensor chip using a standard amine coupling method.

mANGPTL3(17-455)-His [5] = molecular target: T3, mANGPTL3(17-455)-His; assay: SPR Biacore, antigen captured, 37C, pH 7.4, HBS-EP
Experimental: as §1

MfANGPTL3(17-170)-mmH [6] = molecular target: T6, MfANGPTL3(17-170)-mmH; assay: SPR Biacore, antigen captured, 37C, pH 7.4, HBS-EP
Experimental: as §1

IC50 (nM), LPL bioassay, 80 nM constant ANGPTL3 (hANGPTL3(17-460)-His [1]): 9.6 nM | IC50 (nM), LPL bioassay, 500 nM constant ANGPTL3 (mANGPTL3(17-240)-His): 31 nM | IC50 (nM), LPL bioassay, 80 nM constant ANGPTL3 (mANGPTL3(17-455)-His [2]): 14 nM | IC50 (nM), LPL bioassay, 80 nM constant ANGPTL3 (hANGPTL3(17-169)-mFc): 21 nM | IC50 (nM), LPL bioassay, 100 nM constant ANGPTL3 (hANGPTL3(17-170)-His): 2.9 nM | IC50 (nM), LPL bioassay, 500 nM constant ANGPTL3 (MfANGPTL3(17-170)-mmH [3]): 10 nM | Kd (hANGPTL3(17-460)-His [4]): 1.29 nM | koff (hANGPTL3(17-460)-His [4]): 0.000812 s⁻¹ | kon (hANGPTL3(17-460)-His [4]): 632000 M⁻¹ s⁻¹ | t1/2 (hANGPTL3(17-460)-His [4]): 14.2 min | Kd (mANGPTL3(17-455)-His [5]): 0.408 nM | koff (mANGPTL3(17-455)-His [5]): 0.000791 s⁻¹ | kon (mANGPTL3(17-455)-His [5]): 1.94e+06 M⁻¹ s⁻¹ | t1/2 (mANGPTL3(17-455)-His [5]): 14.6 min | Kd (MfANGPTL3(17-170)-mmH [6]): 0.625 nM | koff (MfANGPTL3(17-170)-mmH [6]): 0.00117 s⁻¹ | kon (MfANGPTL3(17-170)-mmH [6]): 1.87e+06 M⁻¹ s⁻¹ | t1/2 (MfANGPTL3(17-170)-mmH [6]): 9.9 min
B1: H4H1276S (antibody, IgG4, V domains shown)
VH: EVQLVESGGGVIQPGGSLRLSCAASGFTFDDYAMNWVRQGPGKGLEWVSAISGDGGSTYYADSVKGRFTISRDNSKNSLYLQMNSLRAEDTAFFYCAKDLRNTIFGVVIPDAFDIWGQGTMVTVSS
VL: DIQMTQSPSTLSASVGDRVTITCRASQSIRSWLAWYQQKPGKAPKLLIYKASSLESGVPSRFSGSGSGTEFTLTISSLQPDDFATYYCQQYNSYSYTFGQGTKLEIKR
